Two substances from patent publication US20080214461 can be followed below.

Data set [1] addresses activated factor VIII (FVIIIa): Recombinate Antihemophilic Factor activated with thrombin (UniProt P00451).
Another data set has as its target factor X (FX) (UniProt P00742).
Chain of UniProt P00742 (P00742 41-488): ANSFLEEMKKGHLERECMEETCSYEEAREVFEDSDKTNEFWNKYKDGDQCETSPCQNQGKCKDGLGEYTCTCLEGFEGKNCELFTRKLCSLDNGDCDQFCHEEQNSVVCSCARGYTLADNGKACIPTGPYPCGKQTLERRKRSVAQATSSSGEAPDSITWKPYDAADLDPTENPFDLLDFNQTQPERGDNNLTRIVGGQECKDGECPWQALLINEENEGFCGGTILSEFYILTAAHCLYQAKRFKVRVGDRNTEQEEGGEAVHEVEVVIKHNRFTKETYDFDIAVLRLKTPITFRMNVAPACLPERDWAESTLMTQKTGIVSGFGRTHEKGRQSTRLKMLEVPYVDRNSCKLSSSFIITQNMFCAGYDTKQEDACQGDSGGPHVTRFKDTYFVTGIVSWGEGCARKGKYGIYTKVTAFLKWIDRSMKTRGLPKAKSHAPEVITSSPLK

Chain of FIX wild type (recombinant, full length, HEK 293), activated form (chain): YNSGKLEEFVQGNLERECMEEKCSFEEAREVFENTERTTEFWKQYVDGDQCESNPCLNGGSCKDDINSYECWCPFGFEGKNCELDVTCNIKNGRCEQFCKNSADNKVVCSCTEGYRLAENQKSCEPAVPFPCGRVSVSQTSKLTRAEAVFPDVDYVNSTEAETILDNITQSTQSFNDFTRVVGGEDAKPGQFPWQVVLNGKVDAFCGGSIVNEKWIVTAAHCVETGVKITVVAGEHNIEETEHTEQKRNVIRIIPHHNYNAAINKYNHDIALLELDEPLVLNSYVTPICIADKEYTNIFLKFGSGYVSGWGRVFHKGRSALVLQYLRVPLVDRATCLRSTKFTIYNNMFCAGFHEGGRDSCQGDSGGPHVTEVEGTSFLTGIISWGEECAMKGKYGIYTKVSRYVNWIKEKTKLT
Chain of plasma derived FIX (pdFIX), activated form pdFIXa (chain): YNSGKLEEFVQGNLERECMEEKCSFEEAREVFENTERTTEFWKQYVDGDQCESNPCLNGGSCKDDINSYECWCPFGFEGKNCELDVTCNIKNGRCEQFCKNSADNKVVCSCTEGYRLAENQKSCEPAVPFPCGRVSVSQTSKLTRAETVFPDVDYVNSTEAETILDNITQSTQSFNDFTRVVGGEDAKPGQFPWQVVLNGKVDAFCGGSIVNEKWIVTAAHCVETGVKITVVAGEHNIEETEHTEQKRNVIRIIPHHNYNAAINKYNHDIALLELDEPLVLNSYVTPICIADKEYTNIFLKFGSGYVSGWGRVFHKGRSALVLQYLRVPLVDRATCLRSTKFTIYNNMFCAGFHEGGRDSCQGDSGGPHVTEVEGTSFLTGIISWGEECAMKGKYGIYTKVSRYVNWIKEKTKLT
Chain of UniProt P00451 (P00451 other isoform, or with tags, fused parts or gaps): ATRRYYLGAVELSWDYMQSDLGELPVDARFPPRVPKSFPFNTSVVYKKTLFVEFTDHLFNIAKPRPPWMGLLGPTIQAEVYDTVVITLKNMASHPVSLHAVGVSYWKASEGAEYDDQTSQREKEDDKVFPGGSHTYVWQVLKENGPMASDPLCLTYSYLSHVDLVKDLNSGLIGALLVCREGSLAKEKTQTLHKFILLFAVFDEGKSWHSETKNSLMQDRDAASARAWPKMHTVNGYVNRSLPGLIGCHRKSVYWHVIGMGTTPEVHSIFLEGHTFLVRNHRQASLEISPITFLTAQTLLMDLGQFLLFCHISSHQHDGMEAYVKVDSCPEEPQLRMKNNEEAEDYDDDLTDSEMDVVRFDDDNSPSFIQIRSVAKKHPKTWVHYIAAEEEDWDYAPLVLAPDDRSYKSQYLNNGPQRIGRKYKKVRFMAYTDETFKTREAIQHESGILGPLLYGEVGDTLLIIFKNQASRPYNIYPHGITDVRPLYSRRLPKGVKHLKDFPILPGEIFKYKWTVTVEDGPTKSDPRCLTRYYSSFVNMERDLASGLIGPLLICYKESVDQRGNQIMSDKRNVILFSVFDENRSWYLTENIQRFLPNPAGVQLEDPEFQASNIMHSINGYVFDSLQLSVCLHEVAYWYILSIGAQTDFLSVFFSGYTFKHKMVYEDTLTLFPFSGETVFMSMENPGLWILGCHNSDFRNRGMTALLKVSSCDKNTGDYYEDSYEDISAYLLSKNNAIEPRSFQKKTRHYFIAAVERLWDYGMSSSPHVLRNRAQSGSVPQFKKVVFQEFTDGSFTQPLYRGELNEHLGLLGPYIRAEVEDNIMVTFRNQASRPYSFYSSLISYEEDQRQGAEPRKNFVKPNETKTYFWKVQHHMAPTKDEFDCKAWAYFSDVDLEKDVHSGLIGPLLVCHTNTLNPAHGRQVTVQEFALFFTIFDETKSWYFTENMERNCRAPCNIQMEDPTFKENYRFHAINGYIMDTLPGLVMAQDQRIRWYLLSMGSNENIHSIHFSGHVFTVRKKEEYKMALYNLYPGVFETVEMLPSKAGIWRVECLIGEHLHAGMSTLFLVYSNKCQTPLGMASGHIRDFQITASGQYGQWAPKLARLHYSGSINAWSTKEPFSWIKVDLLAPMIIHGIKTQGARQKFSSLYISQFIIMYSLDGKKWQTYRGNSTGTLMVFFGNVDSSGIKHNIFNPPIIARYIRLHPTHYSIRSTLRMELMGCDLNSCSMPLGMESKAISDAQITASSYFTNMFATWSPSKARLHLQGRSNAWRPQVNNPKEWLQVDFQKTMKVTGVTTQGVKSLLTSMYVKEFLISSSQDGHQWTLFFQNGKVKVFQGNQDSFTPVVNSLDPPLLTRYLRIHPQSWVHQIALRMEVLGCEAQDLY

For “FIX wild type (recombinant, full length, HEK 293), activated form”, the “ratio kcat/KM +/- FVIIIa (FX activation)” value in data set [1] is on record as 36,695. Besides, in the data set with factor X (FX), the KM (nM), FX activation with FVIIIa was 11 nM; the KM (nM), FX activation without FVIIIa worked out at 68 nM; the kcat (10^-3 min^-1), FX activation without FVIIIa was found to be 0.017 min⁻¹; the kcat (min^-1), FX activation with FVIIIa was 102 min⁻¹. Besides, in the data set with factor X (FX), the kcat/KM (10^-6 nM^-1 min^-1), FX activation without FVIIIa was 0.000252 nM⁻¹ min⁻¹; the kcat/KM (nM^-1 min^-1), FX activation with FVIIIa came to 9 nM⁻¹ min⁻¹; the “rate of FX activation against pdFIXa” value is “FIX-WT and FIX-Y94F/K98T/Y177F activated FX at the same rate as pdFIXa”.

Turning to “plasma derived FIX (pdFIX), activated form pdFIXa”, the “ratio kcat/KM +/- FVIIIa (FX activation)” value in data set [1] was 52,430. For the same substance, in the data set with factor X (FX), the KM (nM), FX activation with FVIIIa stood at 13 nM; the KM (nM), FX activation without FVIIIa is 65 nM; the kcat (10^-3 min^-1), FX activation without FVIIIa stood at 0.013 min⁻¹; the kcat (min^-1), FX activation with FVIIIa was determined as 131 min⁻¹. Moreover, in the data set with factor X (FX), the kcat/KM (10^-6 nM^-1 min^-1), FX activation without FVIIIa worked out at 0.000195 nM⁻¹ min⁻¹ and the kcat/KM (nM^-1 min^-1), FX activation with FVIIIa was found to be 10 nM⁻¹ min⁻¹.
